Source: paper PMC2867295 (The Journal of Cell Biology, 2010)

Target: mouse calmodulin, bacterially expressed and biotinylated (mouse, UniProt P0DP26 1-149, biotinylated (EZ-link Sulfo-NHS-LC-Biotinylation kit))
Assay: far-Western, overlay or dot blot

B1: Pcdp1-2, fragment aa 447–530 of mouse Pcdp1 with the uncharacterized predicted CaM-binding motif (domain or fragment)
chain: PLVNNVWLTRHRAQRRFQQAARKIMLERRLLSMLGAIRGMDKESILRKIIQVNGKLIQGENPSRGRRAHLKQEDNIWRYSLESE
B1: binds.
